{"source": "patent US20110158985A1", "target": "F protein of RSV (Long strain) (RSV (Long strain)) (UniProt P12568)", "sequence (P12568 26-574)": "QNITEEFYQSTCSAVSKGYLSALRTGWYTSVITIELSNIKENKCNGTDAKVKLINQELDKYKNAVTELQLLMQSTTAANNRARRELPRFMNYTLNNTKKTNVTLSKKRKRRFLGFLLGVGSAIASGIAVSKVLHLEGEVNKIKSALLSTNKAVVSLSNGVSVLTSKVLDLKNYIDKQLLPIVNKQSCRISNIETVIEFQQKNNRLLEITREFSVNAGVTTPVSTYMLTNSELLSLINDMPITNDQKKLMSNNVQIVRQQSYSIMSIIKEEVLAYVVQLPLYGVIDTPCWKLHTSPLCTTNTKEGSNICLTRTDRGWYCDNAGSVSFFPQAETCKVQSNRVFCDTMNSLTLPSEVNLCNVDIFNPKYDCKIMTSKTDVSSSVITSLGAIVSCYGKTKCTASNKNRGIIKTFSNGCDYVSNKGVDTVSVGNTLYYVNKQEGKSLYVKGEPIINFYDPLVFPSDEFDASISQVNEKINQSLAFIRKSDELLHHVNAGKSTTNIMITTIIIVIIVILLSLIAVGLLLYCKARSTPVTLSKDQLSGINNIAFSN", "test": "cell-based or functional assay"}
{"substance": "palivizumab F(ab')2", "values": [{"measurement": "Microneutralization IC50", "result": 1.4, "unit": "nM"}]}
